Holding throughout (conditions): both partners purified
The target of test [1] is T1, recombinant human PD-L1 (Homo sapiens, UniProt Q9NZQ7).
T1 construct: PD-L1, human; the methods are probably in the supplementary material; In the internalization assay hPD-L1 was expressed on CHO-K1 cells; also called hPD-L1
Description: SPR; JS003 captured on biosensor; association with recombinant human PD-L1 at pH 7.4; dissociation followed at pH 6.0 (compared with pH 7.4). For orientation: SPR reads the build-up and loss of mass on a sensor chip optically.

Test [2] deals with T1, recombinant human PD-L1. Kind of test: SPR; JS003 immobilized on the chip; serial dilutions of PD-L1 from 0.75 nM to 24 nM flowed through.
Test [3] has as its target T1, recombinant human PD-L1. Kind of test: SPR; JS003 captured on biosensor; association with recombinant human PD-L1 at pH 7.4; dissociation followed at pH 5.5 (compared with pH 7.4).

T1 sequence (Q9NZQ7 19-290): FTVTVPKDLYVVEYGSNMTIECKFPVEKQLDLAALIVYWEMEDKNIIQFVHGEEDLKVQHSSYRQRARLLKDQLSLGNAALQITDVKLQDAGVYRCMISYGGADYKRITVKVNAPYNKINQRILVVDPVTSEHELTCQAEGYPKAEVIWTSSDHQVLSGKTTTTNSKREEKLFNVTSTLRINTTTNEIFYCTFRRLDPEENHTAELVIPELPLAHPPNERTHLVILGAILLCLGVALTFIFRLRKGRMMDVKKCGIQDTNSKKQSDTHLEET

B1: JS003 (antibody, V domains shown)
VH: QGQLQESGPSLVKPSQTLSLTCTVSGDSITRGYWNWIRKHPGKGLEYIGYISYTGSTYSNLSLKSRVTISRDTSKNQYYLKLSSVTAADTAVYYCATSTGWLDPVDYWGQGTLVTVSS
VL: DIVMTQSPDSLAVSLGERATINCKASQNVDTSVAWFQQKPGQPPKALIYSASFRYSGVPDRFSGSGSGTDFTLTISSLQAEDVAVYFCQQYYGYPFTFGQGTKLEIK
notes: humanized PD-L1 specific mAb; Fab part as the heavy chain of m2; as the light chain of m2; Whole humanized mAb; Labelled with CypHer5E in the internalization assay only; also called JS003 antibodies
Regarding B1, in the test with recombinant human PD-L1 [1], the “fold faster dissociation rate at pH 6.0 than at pH 7.4” value was 3.4 fold. In addition, the Kd with recombinant human PD-L1 [2] amounted to 288 pM. The “fold faster dissociation rate at pH 5.5 than at pH 7.4” value in the test with recombinant human PD-L1 [3] is 8.7 fold.

A word on the Kd: it is the concentration at which binding is half-saturated.
